Experiments:
[1] = target: recombinant human IL-12 beta1 receptor protein (human); test: equilibrium binding of 125I-labeled IL-12 to transfected COS cells, Scatchard analysis, single site model
[2] = target: recombinant human IL-12 beta2 receptor protein expressed from the B5-10 plasmid on COS cells (human); test: as above

Q: Which results are given for “recombinant human IL-12 (Interleukin-12) (from UniProt P29460) (ligand)”?
A: Kd [1]: 2 to 5 nM; Kd [2]: 2 to 5 nM

— patent publication US5840530
